# Assay results published in US20200255503A1.
# Positions count from the first letter of the chain named.
# B1: H4H2797P (antibody, human IgG4, V domains shown)
# VH: QVQLVESGGGVVLPGRSLRLSCAASGFTFSSYLMYWVRQAPGKGLEWVAVIWYDGSNKFYGDSVKGRFTISRDNSKNTLYLQMNSLRAEDTAVYYCARDNGNSGYEDSWNAFDIWGQGTMVTVSS
# VL: DIQMTQSPSSLSASVGDRVTITCRASQDIYNYLAWFQQKPGKAPKSLIYAASSLQTGVPSQFSGSGSGTDFTLTISSLQPEDFATYYCQQYNNYPFTFGPGTKVDIK
# B2: H2M1233N (antibody, mouse IgG2, V domains shown)
# VH: QVVLVESGGGVVQPGRSLRLSCAASGFTFSSYGMHWVRQAPGKGLEWVAVIWYDGSNKYYVDSVKGRFTISRDNSNNTIYLQMNSLRAEDTAVYYCARSLIPVAGTDPIFGYWGQGTLVTVSS
# VL: DIQMTQSPSTLSASVGDRVTITCRASQSVSSWLAWYQQKPGKAPKLLIFKASGLESGVPFRFSGSGSGTEFTLTISSLQPDDFATYYCQQYNTYSPTFGQGTKVEIK
# B3: H2M1242N (antibody, mouse IgG2, V domains shown)
# VH: EVQLVESGGGLVRPGGSLRLSCAASGFTFTSYAMNWVRQAPGKGLEWVSSISSYSSYIYIADSVKGRFTLSRDNAKNSLYLQMHSLRPEDTAVYFCAREGYSAYSYFDFWGRGTLVTVSS
# VL: B2 VL with S30I, F49H, K50R, G53S, F60S, S77G, S95F, I106V
# B4: H2M1237N (antibody, mouse IgG2, V domains shown)
# VH: B2 VH with N57I, V61A, S99A
# VL: B2 VL with A51T
# B5: H4H2597B (antibody, human IgG4, V domains shown)
# VH: EVQLVESGGGLVQPGGSLRLSCAVSGFTFSNYAMNWVRQAPGKGLEWVSVISDSGRSTYYADSVKGRFTISRDNSKNTLYLQMNSLRAEDTAVYFCAKRYNWNLHYFDYWGQGTTVTVSS
# VL: EIVLTQSPDFQSVTPKEKVTITCRASQSIGGSLHWYQQKPDQSPKLLIKYASQSFSGVPSRFSGSGSGTDFTLTINSLEAEDAATYYCLQSSSLRTFGQGTKVEIKR
# B6: H4H2606B (antibody, human IgG4, V domains shown)
# VH: EVQLVESGGGLVKPGGSLRLSCAASGFTFSDYYMNWIRQAPGKGLEWVSYISSSGNSIYYADSVKGRFTISRDNAKNSLFLQMSSLRAEDTAVYYCARDGRYNDRRRGYYWGQGTLVTVSS
# VL: B5 VL with L4M, G31S
# B7: H1M1241N (antibody, V domains shown)
# VH: EVQLVESGGGLVKPGGSLRLSCAASGFTFSSYSMNWVRQAPGKGLEWVSSISSRSSYIYYADSVKGRFTISRDNAKNSLYLQMNSLRAEDTAVYYCARDHIVVVPGASYYYYGMDVWGQGTTVTVSS
# VL: DIQMTQSPSSLSASVGDRVTITCRASQGIRNDLGWYQQKPGKAPKRLISAASSLQSGVPSRFSGSGSGTEFTLTISSLQPEDFATYYCLQHNSYPLTFGGGTKVEIK
# B8: H4H2590S (antibody, human IgG4, V domains shown)
# VH: QVQLVESGGGLVKPGGSLRLSCAASGFTFSDYYMNWIRQAPGKGLEWISYISSGGSTTYYADSVKGRFTISRDNAKNSLYLQMNSLRAEDTAVYYCARDGKYNTSPGDYWGQGTLVTVSS
# VL: EIVLTQSPDFQSVTPKEKVTITCRASQSIGSSLHWYQQKPDQSPKLLIKYASQSFSGVPSRFSGSGSGTDFTLTINSLEAEDAATYYCLQSSSLRTFGQGTKVDIK
# B9: H4H2608B (antibody, human IgG4, V domains shown)
# VH: B8 VH with Q1E, G54S, G55D, S56D, S105V, P106A, Y109H
# VL: B5 VL with L4M, T14A, S28N, G31S, S92Y, S93T
# B10: H4H2592B (antibody, human IgG4, V domains shown)
# VH: B8 VH with G54S, Y80F, A88G, K101R, S105V, P106A, L115T
# VL: B5 VL with L4M, T14A, S28N, S92Y, S93T
# B11: H4H2607B (antibody, human IgG4, V domains shown)
# VH: B8 VH with Q1E, I51L, G54S, T57A, S105V, P106A, L115T
# VL: DIQLTQSPSSLSASVGDRVTITCRASQGIRNDLGWYQQKPGKAPKRLIYAASSLQSGVPSRFSGSGSGTEFTLTISSLQPEDFATYYCLQHNSYPYTFGQGTKVEIKR
# B12: H1M1230N (antibody, V domains shown)
# VH: EVQLVESGGGLVQPGGSLRLSCTASGFIFSNFWMTWVRQAPGKGLEWVANIKQDGSETYCVDSVKGRFTISRDHAKNSLFLQMNSLRAEDTAVYYCARGAGTIYYYGMDVWGQGTTVIVSS
# VL: DIQMTQSPSSVSASVGDRLTITCRASQDISSWLTWYQQKPGKAPNLLIYAASGLQSGVPSRFSGSGSGTDFTLTISNLQPEDFATYYCQQANSFPLTFGQGTRLEIK
# B13: H2M1236N (antibody, mouse IgG2, V domains shown)
# VH: QVQLQESGPGLVKPSETLSLTCTVSGGSISNYYWSWIRQPPGKGLEWIGYIYYSGRTNYNPSLKSRVTISVDTSKNQFSLKLRSVTAADTAVYYCARHRITRTADSFDYWGQGTLVTVSS
# VL: DIQMTQSPSSLSASVGDRVTITCQASQDITNYLNWYQQKPGKAPKLLIYDASNLETGVPSRFSGSGSGTDFTFTISSLQPEDVATFYCHQYGDLPYTFGQGTKLEIK
# Biological target: natural Fel d1 (cat (Felis domesticus)) (UniProt P30438)
# Assay: SPR, mAb captured, nFel d1 injected, 25 C
Binder,Kd,koff,kon,t1/2
B1,35.4 nM,0.00713 s⁻¹,202000 M⁻¹ s⁻¹,2 min
B2,1.4 nM,0.000353 s⁻¹,253000 M⁻¹ s⁻¹,33 min
B3,3.14 nM,0.000604 s⁻¹,192000 M⁻¹ s⁻¹,19 min
B4,0.982 nM,0.000276 s⁻¹,281000 M⁻¹ s⁻¹,42 min
B5,0.65 nM,0.0015 s⁻¹,2.31e+06 M⁻¹ s⁻¹,8 min
B6,0.765 nM,0.000707 s⁻¹,924000 M⁻¹ s⁻¹,16 min
B7,3.63 nM,0.000662 s⁻¹,182000 M⁻¹ s⁻¹,17 min
B8,0.655 nM,0.000802 s⁻¹,1.23e+06 M⁻¹ s⁻¹,14 min
B9,2.05 nM,0.00106 s⁻¹,516000 M⁻¹ s⁻¹,11 min
B10,0.641 nM,0.000728 s⁻¹,1.14e+06 M⁻¹ s⁻¹,16 min
B11,0.307 nM,0.00091 s⁻¹,2.97e+06 M⁻¹ s⁻¹,13 min
B12,3.37 nM,0.000869 s⁻¹,258000 M⁻¹ s⁻¹,13 min
B13,4.55 nM,0.00142 s⁻¹,312000 M⁻¹ s⁻¹,8 min
